T1: Gli3^1-90 (90-residue N-terminal Gli3 fragment), His tag cleaved (UniProt P10071 1-90)
T1 sequence (looked up): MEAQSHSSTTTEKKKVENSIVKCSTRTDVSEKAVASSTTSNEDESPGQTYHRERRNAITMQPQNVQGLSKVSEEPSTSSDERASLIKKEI

B1: His6-Gli3^1-90 (N-terminal His6 tag left on) (domain or fragment, UniProt P10071 1-90, looked up)
chain: T1 sequence (looked up)
B2: Gli3^1-90: 90-residue N-terminal Gli3 fragment, recombinant, intrinsically disordered (protein)
chain: T1 sequence (looked up)
modifications: left off: His6, N-terminal, cleaved
B3: SPOP^MATH (MATH domain of Speckle-type POZ protein, residues 28-166) (domain or fragment, UniProt O43791 28-166, looked up)
chain: KVVKFSYMWTINNFSFCREEMGEVIKSSTFSSGANDKLKWCLRVNPKGLDEESKDYLSLYLLLVSCPKSEVRAKFKFSILNAKGEETKAMESQRAYRFVQGKDWGFKKFIRRDFLLDEANGLLPDDKLTLFCEVSVVQD

How the values were obtained:
[1] = biological target: B3; assay: fluorescence polarisation
[2] = biological target: B3; assay: fluorescence polarisation; remark: listed apart in the source
[3] = biological target: T2, SPOP^MATH-BTB (SPOP construct encompassing residues 28-337) (UniProt O43791 28-337); assay: fluorescence polarisation
[4] = biological target: B3; assay: BLI
[5] = biological target: T2, SPOP^MATH-BTB (SPOP construct …); assay: BLI
[6] = biological target: SPOP^MATH-BTB-BACK (SPOP construct encompassing residues 28-359) (UniProt O43791 28-359); assay: BLI
SPOP^MATH = SPOP^MATH (Homo sapiens, UniProt O43791); assay: Sedimentation velocity AUC, stoichiometry of Gli3^1-90/SPOP^MATH complex; format: binding; details: SV AUC, excess SPOP^MATH (Gli3^1-90 156 μM / SPOP^MATH 525 μM), pH 6.0, 20 °C, size-and-shape distribution analysis
[7] = biological target: T1, Gli3^1-90 (90-residue N-terminal Gli3 …); assay: AUC

Molecule Ac-MEAQSHSSTTTEKK-NH2 [SBM1 (Gli3 peptide, SPOP-binding motif 1)] has a Kd [1] of about 4100 µM.

For ENLACDEVTSTTSSST (not fully specified; fluorescein on the N-terminus; C-terminal amide) [F-pPuc (N-terminally fluorescently labeled Puc peptide)], the Kd [2] was about 6 µM and the Kd [3] was about 6 µM.

With Ac-ENLACDEVTSTTSSST-NH2 [pPuc (peptide derived from the Drosophila melanogaster protein Puckered, residues 91-106)] the Kd [1] was 7.7 µM.

With Ac-KVSEEPSTSSDERA-NH2 [SBM3 (Gli3 peptide, SPOP-binding motif 3)] the Kd [1] was 560 µM.

For Ac-EKAVASSTTSNEDES-NH2 [SBM2 (Gli3 peptide, SPOP-binding motif 2)], the Kd [1] was 80 µM.

In the case of B1, the Kd [4] is reported as 21 µM, the Kd [5] is reported as 28 µM and the Kd [6] is reported as 1.5 µM.

For B2, the “number of MATH domain molecules bound to 1 Gli3^1-90 molecule” value (SPOP^MATH) was “up to 3”.

For B3, the “stoichiometry N” value [7] was at most 3 SPOP^MATH per Gli3^1-90.

Reference: PMC4826287 (Journal of molecular biology, 2015)
